According to patent publication US20250188161A1:

Tests used:
Experiment in all cases: flow cytometry, HEK-293T cells co-transfected with mGarp and the HA-tagged TGF-β1 construct
[1] = molecular target: HA-tagged mouse-human-mouse chimeric TGF-β1, mouse LAP residues 201-222 replaced by the corresponding human LAP segment, on HEK-293T cells co-transfected with GARP (mouse; human) (UniProt P04202)
[2] = molecular target: HA-tagged mouse-human-mouse chimeric TGF-β1, mouse LAP residues 87-135 replaced by the corresponding human LAP segment, on HEK-293T cells co-transfected with GARP (mouse; human) (UniProt P04202)
[3] = molecular target: HA-tagged mouse-human-mouse chimeric TGF-β1, mouse LAP residues 136-200 replaced by the corresponding human LAP segment, on HEK-293T cells co-transfected with GARP (mouse; human) (UniProt P04202)
[4] = molecular target: HA-tagged mouse-human-mouse chimeric TGF-β1, mouse LAP residues 223-278 replaced by the corresponding human LAP segment, on HEK-293T cells co-transfected with GARP (mouse; human) (UniProt P04202)

Row | % binding relative to WT TGF-β1 (100 %) [1] [%] | % binding relative to WT TGF-β1 (100 %) [2] [%] | % binding relative to WT TGF-β1 (100 %) [3] [%] | % binding relative to WT TGF-β1 (100 %) [4] [%] | Binder
1 | 2 | 164 | 108 | 126 | LMT-9 (20G3) (antibody, V domains shown) VH: LQLVESGGGLVQPGGSLRLSCAASGFTFSRSGMAWVRQAPGKGLEWVSAITPGGTATYYANSVKGRVTMSRDNAKNTLYLQMNSLKSEDTAVYYCAKGLVSSGLNGMDYWGKGTLVTVSS VL: QSVLTQLSSMSGSPGQTVTITCTGSSSNIGGGYYLSWYQQLPGTAPKLLIYNTNNRASGVPNRFSGSKTGSLASLTITGLQAEDEADYYCGCYDDSLNTYVFGGGTKLTVL
2 | 3 | 99 | 105 | 89 | LMT-12 (14D7) (antibody, V domains shown) VH: EVQLVESGGGLVQPGGSLRLSCAASGFTFSSYYMYWVRQAPGKGLEWVSGTSIGGGSTWYADSVKGRFTISRDNAKNTLYLQMNNLKSEDTAVYYCAKDLNSRSYKGMGDWGQGTQVTVSS VL: QPALTQLSSMSGSPGQTVTITCTGSSSNIGGGYYLNWYQQLPGAAPKLVIYNANNRASGVPDRFSGSKSGNLASLTITGLQAEDEAVYFCGCYDSSLSSVVFGGGTHLTVL
3 | 126 | 158 |  | 99 | LMT-10 (20G4) (antibody, V domains shown) VH: QVQLVESGGGLVQPGGSLTLSCAASGFTFSNYYMTWVRQAPGKGLEWVSSIYSTGSHTYYADSVKGRFTISRDNAKDTLYLQMNDLKSEDTAVYYCAKNIYTYYTAHYAGMDYWGKGTLVTVSS VL: QSALTQPSTVSVSLGQMARITCQGGSLGSYDAHWYQQKPGQAPVLVIHDDNSRPSGIPERFSGSRSGGTATLTISGAQADDEGVYFCHSYDSSANAPVFGGGTELTVL
4 | 2 | 157 | 155 | 115 | LMT-2 (6D12) (antibody, V domains shown) VH: EVQLVESGGGLVQPGGSLRLSCAASGFTFSNYGVHWVRQAPGKGLEWVSHISAAGISRYYADAVKGRFTMSRDNGKNTLYLQMNGLKSEDTAVYYCAKDRIRSSYEYDSWGQGTQVTVSS VL: LPVLTQLSSMSGSPGQTVTITCTGSSSNIGGGYYLSWYQQLPGTAPKLLIYNANNRASGVPNRFSGSKSGNLASLTITGLQAEDEADYYCGCYDSSLSTGYVFGGGTKLTVL

The remaining lines, values behind:

Row | Binder | % binding relative to WT TGF-β1 (100 %) [1] [%] | % binding relative to WT TGF-β1 (100 %) [2] [%] | % binding relative to WT TGF-β1 (100 %) [3] [%] | % binding relative to WT TGF-β1 (100 %) [4] [%]
5 | LHT-22 (15A2) (antibody, V domains shown) VH: ELQLVESGGGLVQPGGSLRLSCAASGFTFDDYTMNWVRQAPGKGLEWVSAIRWNGVTTYYAESMKGRFTVSRDNGNNTLYLQMNSLKAEDTAVYYCAKGGSIDLTYGMDYWGKGTLVTVSS VL: QAVVTQEPSLSVSPGGTVTITCGLSSGSVTRNNYPDWYQQTPGQAPRLLLYNTVARHSGVPSRFSGSISGNKAALTITGAQPEDEAGYYCALYMYTGSNNGRVFGGGTLLTVL | 89 |  |  | 
6 | LHT-15 (13E7) (antibody, V domains shown) VH: EVQLVESGGDLVQPGGSLRLSCAASGFTFSSYWMDWVRQAPGKGLEWVSRITNSGGTAFYTDSVEGRFTISRDNAKNTLYLQMNSLKSEDTAVYYCLRYITRAQLMGAWDYWGQGTQVTVSS VL: ATMLTQSPGSLSVVPGESASISCKASQSLVHTDGKTYLSWLLQKPGQRPQLLIYQVSNRASGVPDRFTGSGSGTDFTLKISGVKAEDAGVYYCAQSTYYPYDFGSGTRLEIR |  | 101 |  | 
7 | LHT-18 (14E7) (antibody, V domains shown) VH: QVQLVESGGGLVQPGGSLRLSCAASGFTFSHYWMYWVRQAPGKGLEWVSAINTGGGITYYTDSVKGRFTVSRDNAKNTLYLQMNSLKSEDTAVYYCAKSRYGVVITTTYFGGVDYWGKGTLVTVSS VL: SSALTQPSAVSVSLGQTARITCQGGNFGSYYASWYQQKPGQAPVQVIYGNSNRPSGIPERFSGSSSGDTATLTISGAQAEDEADYYCLSYESSGYAVFGGGTHLTVL | 63 |  |  | 
